We go through 1 molecule from patent publication US20230357353A1 (RAMOT AT TEL AVIV UNIVERSITY, published 2023).

Assay [1] deals with T1, high affinity (HA) α4β7 integrin on activated cells (Mn2+-treated TK-1 cells or primary mouse leukocytes) (mouse, UniProt Q00651 41-1039; P26011 20-806).
T1 construct: whole, on cells; Same polypeptides as m4; also called LPAM-1
The experiment in a line: flow cytometry on Mn2+-treated TK-1 cells. The protocol: (§1) In-vitro binding—TK-1 cells were activated according to Y. Yang et al.³⁰. Briefly, cells were washed with PBS and resuspended in resuspension buffer (HBSS with 10 mM HEPES buffer, 2 mM CaCl₂ and 2 mM MgCl₂). Non-activated cells were kept on ice while activated cells were resuspended in pre-incubation buffer (HBSS with 10 mM HEPES buffer and 2 mM EDTA), incubated at RT for 30 minutes with gentle rotation, washed with PBS and finally resuspended in activation buffer (HBSS with 10 mM HEPES buffer, 2 mM CaCl₂ and 2 mM MnCl₂). MAdCAM-D1D2-Fc and the controls were added to both activated and non-activated cells and incubated for 30 minutes at 4° C. Cells were subsequently washed and stained with either anti-human IgG or anti-mouse IgG conjugated to AlexaFluor647 (Biolegend, USA). Binding of D1D2-Fc to TK-1 cells was assessed by analyzing the fluorescence of the cells by flow cytometry. Binding of D1D2-targeted Cy5-LNPs was detected by flow cytometry directly using the Cy5 fluorescence (without addition of another antibody). In the binding experiments with Cy5-LNPs, the HBSS in the activation buffer was replaced with RPMI+10% FBS due to a high background using LNPs.
(§2) Following purification, the functionality of the generated D1D2-Fc and mD1D2-Fc was tested in-vitro by assessing their binding to TK-1 cells using flow cytometry. […]
On the technique in general: Flow cytometry measures light scatter and fluorescence of single cells or particles in a stream.

The target in assay [2] is T2, low affinity (LA) α4β7 integrin on non-activated cells (Ca2+ control, no Mn2+) (mouse, UniProt Q00651 41-1039; P26011 20-806).
T2 construct: whole, on cells
T2 sequence (Q00651 41-1039, chain 1 of 2): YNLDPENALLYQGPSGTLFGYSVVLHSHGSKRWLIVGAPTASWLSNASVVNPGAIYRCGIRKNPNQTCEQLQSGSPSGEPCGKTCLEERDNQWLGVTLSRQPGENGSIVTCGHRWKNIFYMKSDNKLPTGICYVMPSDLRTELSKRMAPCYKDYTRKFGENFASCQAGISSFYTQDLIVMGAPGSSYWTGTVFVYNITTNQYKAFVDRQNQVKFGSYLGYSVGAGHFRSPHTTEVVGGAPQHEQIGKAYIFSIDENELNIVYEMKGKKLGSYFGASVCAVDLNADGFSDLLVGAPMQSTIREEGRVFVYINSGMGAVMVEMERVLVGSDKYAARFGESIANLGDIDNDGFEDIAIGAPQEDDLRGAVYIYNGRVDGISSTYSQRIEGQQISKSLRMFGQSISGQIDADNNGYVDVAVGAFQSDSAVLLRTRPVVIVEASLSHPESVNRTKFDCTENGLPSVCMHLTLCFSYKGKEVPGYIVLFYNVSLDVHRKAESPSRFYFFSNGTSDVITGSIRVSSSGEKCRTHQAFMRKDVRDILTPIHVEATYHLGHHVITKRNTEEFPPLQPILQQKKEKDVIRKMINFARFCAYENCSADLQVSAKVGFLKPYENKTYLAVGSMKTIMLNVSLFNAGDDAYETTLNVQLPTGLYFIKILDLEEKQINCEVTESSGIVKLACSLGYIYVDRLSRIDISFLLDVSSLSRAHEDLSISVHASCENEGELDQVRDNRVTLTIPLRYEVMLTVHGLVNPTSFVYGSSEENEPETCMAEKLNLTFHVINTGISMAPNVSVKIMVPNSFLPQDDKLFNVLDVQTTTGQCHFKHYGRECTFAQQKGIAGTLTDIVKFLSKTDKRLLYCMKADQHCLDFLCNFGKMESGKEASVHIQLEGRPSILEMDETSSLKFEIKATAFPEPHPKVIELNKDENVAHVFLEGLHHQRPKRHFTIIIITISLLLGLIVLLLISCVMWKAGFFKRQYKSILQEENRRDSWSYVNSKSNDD
T2 sequence (P26011 20-806, chain 2 of 2): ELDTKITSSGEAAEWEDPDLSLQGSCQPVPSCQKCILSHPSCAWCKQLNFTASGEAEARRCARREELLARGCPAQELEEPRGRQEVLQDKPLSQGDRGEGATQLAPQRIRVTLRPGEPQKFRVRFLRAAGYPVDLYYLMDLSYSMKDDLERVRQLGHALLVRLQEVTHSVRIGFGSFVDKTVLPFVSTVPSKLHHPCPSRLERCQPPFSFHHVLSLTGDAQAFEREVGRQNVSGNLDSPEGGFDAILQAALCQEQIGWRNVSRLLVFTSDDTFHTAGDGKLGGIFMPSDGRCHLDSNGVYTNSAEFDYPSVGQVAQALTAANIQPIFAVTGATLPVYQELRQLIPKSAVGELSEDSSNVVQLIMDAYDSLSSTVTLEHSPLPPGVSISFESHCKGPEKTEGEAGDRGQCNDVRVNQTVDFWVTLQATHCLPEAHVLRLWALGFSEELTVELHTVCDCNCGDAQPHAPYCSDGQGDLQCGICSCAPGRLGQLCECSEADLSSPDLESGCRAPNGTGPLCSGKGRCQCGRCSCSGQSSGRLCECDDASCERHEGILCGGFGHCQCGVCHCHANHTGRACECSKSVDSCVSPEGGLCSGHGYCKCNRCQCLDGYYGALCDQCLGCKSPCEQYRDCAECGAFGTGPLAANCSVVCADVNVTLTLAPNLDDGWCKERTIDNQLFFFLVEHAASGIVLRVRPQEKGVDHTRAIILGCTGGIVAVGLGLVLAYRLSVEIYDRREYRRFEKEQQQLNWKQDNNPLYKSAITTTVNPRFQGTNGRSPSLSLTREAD
The experiment in a line: flow cytometry on TK-1 cells without Mn2+ (Ca2+ control). The procedure:
as §1, §2

T1 sequence (Q00651 41-1039, chain 1 of 2): as the sequence (Q00651 41-1039, chain 1 of 2) above
T1 sequence (P26011 20-806, chain 2 of 2): as the sequence (P26011 20-806, chain 2 of 2) above

B1: MAdCAM-mD1D2-Fc fusion protein (D62A mutated control) (Fc fusion)
chain: DYKDDDDKLAAAQSFQVNPPESEVAVAMGTSLQITCSMSCDEGVARVHWRGLATSLGSVQTLPGSSILSVRGMLSDTGTPVCVGSCGSRSFQHSVKILVYAFPDQLVVSPEFLVPGQDQVVSCTAHNIWPADPNSLSFALLLGEQRLEGAQALEPEQEEEIQEAEGTPLFRMTQRWRLPSLGTPAPPALHCQVTMQLPKLVLTHRKEIPVLGGGGSGGGGSGGGGSVPRECNPCGCTGSEVSSVFIFPPKTKDVLTITLTPKVTCVVVDISQNDPEVRFSWFIDDVEVHTAQTHAPEKQSNSTLRSVSELPIVHRDWLNGKTFKCKVNSGAFPAPIEKSISKPEGTPRGPQVYTMAPPKEEMTQSQVSITCMVKGFYPPDIYTEWKMNGQPQENYKNTPPTMDTDGSYFLYSKLNVKKETWQQGNTFTCSVLHEGLHNHHTEKSLSHSPGKGSGHHHHHH
notes: The signal peptide, FLAG-tag and 6x HIS-tag are as in D1D2-Fc; also called mD1D2 control; targeting protein of the mD1D2-targeted LNPs (mD1D2-LNPs)
For B1, the binding result in assay [1] and in assay [2] was “no binding” each time.
